Test results as given in the supplement of paper PMC12042874.
± gives the uncertainty stated by the source.

Test: amyloid nucleation score (Sup35N fusion, yeast selection) (log enrichment); library NNK3; higher = more nucleation; inactive = no reads after selection
In short: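 Nucleation score: DiMSum log enrichment of output over input reads, centred on the mode score of non-aggregating sequences. Only sequences with at least 100 input reads were kept. Reads came from Illumina sequencing of plasmid inserts before and after 7 days of growth at 30°C without adenine and uracil, in psi-negative yeast expressing Sup35N fused to peptides of 20 random codons after 24 hours of induction with 100 μM copper sulfate.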

Substance | amyloid nucleation score
SDNFLRNSLSQEYVRQTLGQ | inactive
QIYSFFIWIEKTGVCRWLWA | inactive
LHKALQYTKTLSESRRLCNR | inactive
LGVRNDPQQSLPVQFGFELE | 0.041 ± 1.2
ITMLMLATVKYSFYADLRFL | inactive
RPAGLWVTMWIYPVLRSTYV | inactive
QLSVNMYDCYDNGEHLRIGG | inactive
STQCFDELMYA | inactive
AVFTCCCPRK | inactive
FNDVLMAVITLSVIDTLMWT | inactive
NFPYYSEYFFLCIRDSTSKS | inactive
VWDNMMIFLYWFFLKSCSHG | inactive
DWCVSSEMSVTNALQATKFA | inactive
WDIWCRS | inactive
CMYSFGEL | inactive
FFREYTSSRQMNICYLSFHG | inactive
IEREMCTGNLVPLNAWKRFH | inactive
LSFDVKASWV | inactive
GKLYPKNVSWILFSAETYLY | 2.54 ± 0.075
NMDSVV | inactive
RELFTFGVFRYQASL | 0.817 ± 0.22
HNVCTKAKTRMYRVERS | inactive
PYMIEVLRSDVNHDCSHMKW | inactive
DMFVECRLISFNFTFIRVLI | inactive

Substance | amyloid nucleation score
YISLDVTSIVGFVENIKQCV | 1.65 ± 0.068
AHVSLVSLRKRLPYFGFASV | inactive
FLCVRSFRFVCVLFFNDIT | inactive
YFGLALKSFGTLM | 0.876 ± 0.19
WFCLRTTVTPLDGFVLWYWE | inactive
IRDYVFRLYYRLNCMIRKRG | inactive
ISDDICSFVAHSAILFGRQM | inactive
STLLRDEML | inactive
YWVWLGPQNI | 0.115 ± 0.41
SIYCANQRSLVYHYVLAFTT | inactive
ASYEDFWDNLA | -0.239 ± 1.4
TVSIRIINT | 0.15 ± 0.66
VYIWRIMTTEIWVRVTWYAG | inactive
MLMVDDYEYMRFQMAGMVYM | inactive
LNATKSDCHSLLI | inactive
MGGICRASRCCGCPTGRNCL | 0.665 ± 0.27
VCASIGCRTGD | inactive
VKVMMT | inactive
CLYSSCALGIARDWVVLL | inactive
MILLFVVAFILLTEYICWAI | 0.601 ± 0.18
WVLDSERQMANSLWSGGGLA | inactive
KFFQIIRASVF | inactive
ECWKVGKGLRSE | inactive
CSNGFLFTVRVDTGFPTRI | inactive

Substance | amyloid nucleation score
SAPRAEVSNRIK | inactive
CIRLRKANINRKDQKRGCMV | inactive
FVVLLGFYHLASQDAYRGAL | 1.09 ± 0.14
GRLCELITSMY | inactive
VFLPGRSIKWFLMAEKLRNH | inactive
NLNYWAFDYADKLIEHSCVR | inactive
WGLRFFIWQPRDMFSACCTC | 1.6 ± 0.11
WLFRGVVRNRRALARGIRAG | inactive
GIEADYSYMSGEGKAVCSSM | inactive
LGVCVWQCLGMSIVNALKRL | inactive
SEVWKWMPDKCVSDGYVFDI | inactive
DSLAVFNNVRRSMTVSRSAA | -0.89 ± 1.3
SDMTYHQWGTVYTLD | inactive
VWFINFVCLFKGSLLCISES | inactive
IALSTDSMPRYLEALRACGC | inactive
SNLRFFVAFLQGRSLN | 0.959 ± 0.23
LPWSINRCNRVENQLVYVWN | 1.1 ± 0.14
SLMKPKSVMEAKVIRINLCL | 0.494 ± 0.28
IAWRQAGDFITLNLSIWMRL | inactive
SRCFNSGTYPEICVHRVLKV | inactive
NLSALMLLLQDRDRAISRPR | 0.919 ± 0.21
MPSRHFLGY | inactive
TGSTDRHYGRYIGWGANSRF | inactive
DQDKLFSEIRAMKFCCSFPP | inactive

Substance | amyloid nucleation score
DSFGLFCYTYLWCLWQANDK | 2.05 ± 0.097
IARATFFINQR | 1.43 ± 0.15
SLCGLFRYAWYQFEFNDVRA | 0.977 ± 0.12
RYRLSCWWIRLGGNRLAWY | inactive
IPSTMRDDFAYTNCPNNSFL | inactive
WIKLNLTYAHWWNMV | inactive
FYVVNSWPRMMCGQARILCL | inactive
INFTRSQYRFLIWYASQKMS | inactive
TFTLSCFTCNGFVSDVVHCD | 3.21 ± 0.054
GGKLGTLCSNSRYGSVHMGV | inactive
MRCSDGPPKWNHD | -0.277 ± 0.88
NPLCTSYNQHPRGYHALTYN | inactive
GVSNRHGGTIYRQRAMHSVG | inactive
SIYYSAILMGYWMDVKSLQY | inactive
NLGLQDFNCNWGFTYGGLTK | inactive
FQCMFYFIFSRCQHLVYCHF | inactive
FDDLSARVPLTVTLWPSHTA | inactive
SFFGVVGKEFVIVQLAIVSG | inactive
TSLSRHTIPYNHVLYSTWW | inactive
LSFAVKCFRIGDMNAFNTFI | inactive
SVNHKFVSDCIFGRATMEVR | -0.263 ± 0.9
MALHRFS | inactive
PCICMVIQSGLDEYAYHVQR | inactive
CSVQVGITSCSNGGYSNVYA | inactive

Substance | amyloid nucleation score
VNEERGNYVWSCIMRYHLWD | inactive
MYVQVS | -0.795 ± 0.91
SRNPEAEHRIIMRAQSTGYF | inactive
LLYVKFIVPYTTM | inactive
RRHAR | inactive
SWITHSIGSDTATGYETFFN | inactive
KVSNTRLVRTINMSCGISYP | inactive
NRCQKSVVYLSLVYYHGIGM | inactive
MINSHDL | inactive
FGFCCKAPCVGSLWVPSVVT | inactive
NLLAMRLWQAQSMKRSLGFL | inactive
NNCSQVHKTRD | inactive
NLCRAI | 0.256 ± 0.36
SFLDNCPRGNRGQVGSEPVS | inactive
RFYDYYTLQVRYMTLHATNG | inactive
NSFYNWSSEKKL | inactive
SDNRSPSLRLFYRPRFHRLG | inactive
ERLGVL | inactive
DFSMSVNSA | inactive
MRVVEYMTSLLSLIFYMGQK | inactive
